Laboratory results as given in patent US20250011422A1 (UNIVERSITY OF FLORIDA RESEARCH FOUNDATION, published 2025).

Key:
CD3 on human T cells [1] = molecular target: T1, CD3 on human T cells (human, UniProt P07766 23-207); assay: flow cytometry titration on primary human T cells
T1 construct: whole, on cells; CD3 is a complex; also called CD3+ cells
Method: (§1) To determine whether T-biAb format affected the affinity to Siglec-6 or CD3 on the cell surface, T-biAbs were titrated and used to stain cells for flow cytometry (FIG. 17a).
(§2) Flow cytometry: Fabs were used to stain cells at a concentration of 2 μg/mL, unless otherwise noted. […] Samples were analyzed on either an Accuri C6 Plus or a LSRII flow cytometer (both from BD Biosciences).

[2] = molecular target: T2, human Siglec-6 on the cell surface (U937, MEC1-002, MEC1-hS6, primary CLL cells) (human, UniProt O43699 27-453); assay: flow cytometry titration on MEC1-hS6 cells, apparent Kd; scFv-Fc format, RC-1 clone
T2 construct: whole, on cells; Endogenous on U937, MEC1-002 and CLL cells; stably transfected in MEC1-hS6
T2 sequence (O43699 27-453): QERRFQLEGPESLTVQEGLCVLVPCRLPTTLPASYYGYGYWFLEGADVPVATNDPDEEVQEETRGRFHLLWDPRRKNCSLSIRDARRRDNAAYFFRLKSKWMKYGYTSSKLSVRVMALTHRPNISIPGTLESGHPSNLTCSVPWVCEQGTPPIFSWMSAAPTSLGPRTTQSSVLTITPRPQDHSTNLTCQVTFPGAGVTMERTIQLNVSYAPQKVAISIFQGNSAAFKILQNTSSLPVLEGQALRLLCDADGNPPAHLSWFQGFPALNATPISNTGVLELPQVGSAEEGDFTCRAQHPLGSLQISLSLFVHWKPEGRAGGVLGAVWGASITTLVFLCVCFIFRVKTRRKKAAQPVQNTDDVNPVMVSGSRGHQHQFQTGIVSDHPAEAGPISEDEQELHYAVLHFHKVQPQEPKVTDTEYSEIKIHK
Method: as §1, §2

[3] = molecular target: T2, human Siglec-6 on the cell surface …; assay: cell-based or functional assay
[4] = molecular target: T2, human Siglec-6 on the cell surface …; assay: cell-based or functional assay; remark: listed apart in the source
CD3 on human T cells [5] = molecular target: T1, CD3 on human T cells; assay: flow cytometry titration on primary human T cells, Alexa Fluor 647 anti-human Fc secondary antibody, percent biAb+ cells
Method: as §1, §2

Siglec-6 VC28-235-His6 = molecular target: T3, Siglec-6 VC28-235-His6 (human, UniProt O43699 28-235); assay: SPR, T-biAb immobilised via the Fc domain, soluble Siglec-6 (aa 28-235-His6) injected
T3 construct: It was deglycosylated with PNGase F for HDX-MS; also called soluble Siglec-6 (aa 28-235-His6); Siglec-6 ectodomain fragment
T3 sequence (O43699 other isoform, or with tags, fused parts or gaps limits assumed): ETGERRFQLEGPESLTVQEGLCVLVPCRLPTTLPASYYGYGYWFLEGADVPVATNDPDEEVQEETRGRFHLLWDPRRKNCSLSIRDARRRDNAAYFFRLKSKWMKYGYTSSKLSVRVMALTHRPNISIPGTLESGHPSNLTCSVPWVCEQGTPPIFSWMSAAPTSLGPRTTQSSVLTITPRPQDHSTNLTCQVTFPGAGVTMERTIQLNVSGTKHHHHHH
Method: Fab kinetics were determined by capturing Siglec-6-Fc (5-10 μg/mL) in HBS-EP+ buffer (Cytiva) and injecting titrated. […] Biacore evaluation software was used to calculate kₒₙ, koff, and Kd.

T1 sequence (P07766 23-207): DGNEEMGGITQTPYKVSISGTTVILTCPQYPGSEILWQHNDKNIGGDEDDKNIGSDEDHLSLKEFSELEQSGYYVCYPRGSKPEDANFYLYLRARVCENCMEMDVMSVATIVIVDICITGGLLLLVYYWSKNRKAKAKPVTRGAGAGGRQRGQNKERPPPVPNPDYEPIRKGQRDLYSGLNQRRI

B1: RC-1/V9 scFv-Fc (bispecific antibody)
chain 1: not shown
chain 2: EVQLVESGGGLVQPGGSLRLSCAASGYSFTGYTMNWVRQAPGKGLEWVALINPYKGVSTYNQKFKDRFTISVDKSKNTAYLQMNSLRAEDTAVYYCARSGYYGDSDWYFDVWGQGTLVTVSSGGGGSGGGGSGGGGSDIQMTQSPSSLSASVGDRVTITCRASQDIRNYLNWYQQKPGKAPKLLIYYTSRLESGVPSRFSGSGSGTDYTLTISSLQPEDFATYYCQQGNTLPWTFGQGTKVEIKEPKSSDKTHTCPPCPAPELLGGPSVFLFPPKPKDTLMISRTPEVTCVVVDVSHEDPEVKFNWYVDGVEVHNAKTKPREEQYASTYRVVSVLTVLHQDWLNGKEYKCKVSNKALPAPIEKTISKAKGQPREPQVCTLPPSRDELTKNQVSLSCAVKGFYPSDIAVEWESNGQPENNYKTTPPVLDSDGSFFLVSKLTVDKSRWQQGNVFSCSVMHEALHNHYTQKSLSLSPGA
notes: Knobs-into-holes heterodimer of the RC-1 scFv-Fc knob arm and the shared anti-CD3 V9 scFv-Fc hole arm; also called RC-1 clone in scFv-Fc format
Which “fold more potent binding than the aDART-Fc” value (CD3 on human T cells [1]) does the source give for B1 here?
The value was about 2 fold.

And the Kd [2]?
The Kd was 1.1 nM.

What about the “EC50 (read off the curve), NFAT reporter activation with MEC1-002 cells” value [3] of the same binder?
The value was about 0.1 nM.

And the “specific lysis of MEC1-hS6 by healthy donor T cells, EC50” value [4]?
Its value is 0.003 nM.

And the “specific lysis of primary CLL cells by autologous T cells, day 11, median” value [4]?
Its value is 2.4%.

What about the “EC50 (read off the curve)” value (CD3 on human T cells [5]) of the same binder?
The value was about 0.05 nM.

And the Kd (Siglec-6 VC28-235-His6)?
Its Kd is 0.1 nM.

And the koff (Siglec-6 VC28-235-His6)?
The koff was 0.00031 s⁻¹.

What about the kon (Siglec-6 VC28-235-His6) of the same binder?
Its kon is 3.05e+06 M⁻¹ s⁻¹.
